Changes are numbered by the printed parent chain.
What was measured:
GIPR A294V (human) = target: T1, GIPR A294V (human) (UniProt P48546)
T1 sequence: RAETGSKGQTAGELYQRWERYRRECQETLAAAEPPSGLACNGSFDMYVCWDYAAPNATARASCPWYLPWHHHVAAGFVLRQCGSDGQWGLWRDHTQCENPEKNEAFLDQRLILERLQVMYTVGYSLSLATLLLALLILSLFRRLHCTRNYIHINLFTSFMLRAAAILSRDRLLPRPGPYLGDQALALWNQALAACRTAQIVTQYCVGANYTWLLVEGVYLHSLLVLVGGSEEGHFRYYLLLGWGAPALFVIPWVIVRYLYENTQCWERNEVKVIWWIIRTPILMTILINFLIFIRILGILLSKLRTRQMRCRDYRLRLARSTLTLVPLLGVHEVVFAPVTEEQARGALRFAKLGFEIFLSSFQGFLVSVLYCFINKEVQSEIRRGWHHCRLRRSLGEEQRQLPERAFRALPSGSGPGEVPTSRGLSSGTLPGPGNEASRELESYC

GIPR S415I (human) = target: T2, GIPR S415I (human) (UniProt P48546)
T2 sequence: T1 sequence with V273A, S394I

GIPR W90Lfs* (human) = target: T3, GIPR W90Lfs* (human) (UniProt P48546)
T3 sequence (P48546 whole entry, looked up): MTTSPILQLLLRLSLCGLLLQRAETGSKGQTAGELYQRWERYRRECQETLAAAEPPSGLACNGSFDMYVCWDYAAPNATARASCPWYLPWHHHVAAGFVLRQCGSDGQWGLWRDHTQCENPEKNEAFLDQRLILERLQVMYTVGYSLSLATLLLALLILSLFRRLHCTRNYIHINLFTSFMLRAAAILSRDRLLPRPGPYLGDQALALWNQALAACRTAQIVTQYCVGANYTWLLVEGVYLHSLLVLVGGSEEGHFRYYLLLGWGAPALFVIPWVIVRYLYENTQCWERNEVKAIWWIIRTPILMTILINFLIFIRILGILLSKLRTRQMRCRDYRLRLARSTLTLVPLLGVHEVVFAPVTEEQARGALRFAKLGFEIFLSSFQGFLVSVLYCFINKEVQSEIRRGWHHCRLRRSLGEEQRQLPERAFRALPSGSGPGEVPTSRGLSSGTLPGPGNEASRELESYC

GIPR V99I (human) = target: T4, GIPR V99I (human) (UniProt P48546)
T4 sequence: T1 sequence with V78I, V273A

GIPR H166Y (human) = target: T5, GIPR H166Y (human) (UniProt P48546)
T5 sequence: T1 sequence with H145Y, V273A

GIPR R12Q (human) = GIPR R12Q (human) (UniProt P48546)
GIPR E354Q (human) = target: T6, GIPR E354Q (human) (UniProt P48546)
T6 sequence: T1 sequence with V273A, E333Q

β-arrestin 2 recruitment (BRET) on stimulation with GIP(1-42): logEC50 (Arrestin) (log M (inferred)) (GIPR A294V (human)): -9.01
β-arrestin 2 recruitment (BRET) on stimulation with GIP(1-42): logEC50 (Arrestin) (log M (inferred)) (GIPR S415I (human)): -9.12
β-arrestin 2 recruitment (BRET) on stimulation with GIP(1-42): logEC50 (Arrestin) (log M (inferred)) (GIPR W90Lfs* (human)): -10.8
β-arrestin 2 recruitment (BRET) on stimulation with GIP(1-42): logEC50 (Arrestin) (log M (inferred)) (GIPR V99I (human)): -8.93
β-arrestin 2 recruitment (BRET) on stimulation with GIP(1-42): logEC50 (Arrestin) (log M (inferred)) (GIPR H166Y (human)): -9.22
β-arrestin 2 recruitment (BRET) on stimulation with GIP(1-42): logEC50 (Arrestin) (log M (inferred)) (GIPR R12Q (human)): -8.72
β-arrestin 2 recruitment (BRET) on stimulation with GIP(1-42): logEC50 (Arrestin) (log M (inferred)) (GIPR E354Q (human)): -8.52
Substance: β-arrestin 2 (Rluc8-Arrestin-3-Sp1) (from UniProt P32121 1-409) (natural protein)

Reference: article PMC11272584 (Nature Metabolism, 2024)
